# In publication PMC11325027:
# Several values for one entry are separate records, joined by “and”; a condition that tells them apart may be missing. Equal values may be shown once.
# What was measured:
# [1] = biological target: P. falciparum translation enhancing factor C-terminal domain (PTEF-CTD) (P. falciparum); experiment: BLI; biotinylated protein ([…] load) immobilised on High Precision Streptavidin (SAX) tips, E. coli 70S ribosome as analyte; Octet RED96e, 30 °C, 1,000 rpm; ribosome buffer 20 mM Tris HCl pH 7.5, 60 mM NH4Cl, 7.5 mM Mg(CH3COO)2, 0.5 mM EDTA, 6 mM βME with 0.1% BSA and 0.02% Tween-20; IF2 pre-incubated with GDPNP; Kd from the fit of equilibrium responses, double-referenced
# [2] = biological target: E. coli initiation factor 2 (IF2) (E. coli) (UniProt P0A705); experiment: as above
substance,measurement,setting,value
E. coli 70S ribosome (complex),Kd,[1],426 nM and 313 nM and 515 nM
same,Kd,[2],9.3 nM and 2.7 nM and 1.5 nM
